The text below walks through data of patent US20130252901A1 (KIMONELLA VENTURES, published 2013).

B1: Ac-RADD-NH2 (peptide)
peptide: Ac-RADD-NH2
notes: also called ID; NO
B2: Ac-HAEE-NH2 (peptide)
peptide: Ac-HAEE-NH2
notes: also called ID; NO; 19
B3: Ac-LAHAEE-NH2 (peptide)
peptide: Ac-LAHAEE-NH2
notes: also called ID; NO; 44
B4: Ac-FSHAEE-NH2 (peptide)
peptide: Ac-FSHAEE-NH2
notes: also called ID; NO; 46
B5: Ac-LGHAEE-NH2 (peptide)
peptide: Ac-LGHAEE-NH2
notes: also called ID; NO; 47
B6: Ac-IAHAEE-NH2 (peptide)
peptide: Ac-IAHAEE-NH2
notes: also called ID; NO; 45
B7: Ac-ISHAEE-NH2 (peptide)
peptide: Ac-ISHAEE-NH2
notes: also called ID; NO; 48
B8: Ac-DDHSLAHAEE-NH2 (peptide)
peptide: Ac-DDHSLAHAEE-NH2
notes: also called ID; NO; 54
B9: Ac-EERNFSHAEE-NH2 (peptide)
peptide: Ac-EERNFSHAEE-NH2
notes: also called ID; NO; 56
B10: Ac-HAEESE-NH2 (peptide)
peptide: Ac-HAEESE-NH2
notes: also called ID; NO; 41
B11: Ac-HAEEQE-NH2 (peptide)
peptide: Ac-HAEEQE-NH2
notes: also called ID; NO; 43
B12: Ac-HAEESD-NH2 (peptide)
peptide: Ac-HAEESD-NH2
notes: also called ID; NO; 39
B13: Ac-HAEEAD-NH2 (peptide)
peptide: Ac-HAEEAD-NH2
notes: also called ID; NO; 40
B14: Ac-HAEEGE-NH2 (peptide)
peptide: Ac-HAEEGE-NH2
notes: also called ID; NO; 42
B15: Ac-AADD-NH2 (peptide)
peptide: Ac-AADD-NH2
notes: also called ID; NO; 32
B16: Ac-RADA-NH2 (peptide)
peptide: Ac-RADA-NH2
notes: also called ID; NO; 36
B17: Ac-KAAE-NH2 (peptide)
peptide: Ac-KAAE-NH2
notes: also called ID; NO; 38
B18: Ac-HAEA-NH2 (peptide)
peptide: Ac-HAEA-NH2
notes: also called ID; NO; 30
B19: Ac-HAAE-NH2 (peptide)
peptide: Ac-HAAE-NH2
notes: also called ID; NO; 31
B20: Ac-AADE-NH2 (peptide)
peptide: Ac-AADE-NH2
notes: also called ID; NO; 35
B21: Ac-HADA-NH2 (peptide)
peptide: Ac-HADA-NH2
notes: also called ID; NO; 34
B22: Ac-HAAD-NH2 (peptide)
peptide: Ac-HAAD-NH2
notes: also called ID; NO; 33
B23: Ac-AAEE-NH2 (peptide)
peptide: Ac-AAEE-NH2
notes: also called ID; NO; 29
B24: Ac-RAAE-NH2 (peptide)
peptide: Ac-RAAE-NH2
notes: also called ID; NO; 37
B25: Ac-DEKQLGHAEE-NH2 (peptide)
peptide: Ac-DEKQLGHAEE-NH2
notes: also called ID; NO; 57
B26: Ac-HSLAHAEESD-NH2 (peptide)
peptide: Ac-HSLAHAEESD-NH2
notes: also called ID; NO; 49
B27: Ac-KNIAHAEEAD-NH2 (peptide)
peptide: Ac-KNIAHAEEAD-NH2
notes: also called ID; NO; 50
B28: Ac-RNFSHAEESE-NH2 (peptide)
peptide: Ac-RNFSHAEESE-NH2
notes: also called ID; NO; 51
B29: Ac-EEKNIAHAEE-NH2 (peptide)
peptide: Ac-EEKNIAHAEE-NH2
notes: also called ID; NO; 55
B30: Ac-RQISHAEEQE-NH2 (peptide)
peptide: Ac-RQISHAEEQE-NH2
notes: also called ID; NO; 53
B31: Ac-DERQISHAEE-NH2 (peptide)
peptide: Ac-DERQISHAEE-NH2
notes: also called ID; NO; 58
B32: Ac-KQLGHAEEGE-NH2 (peptide)
peptide: Ac-KQLGHAEEGE-NH2
notes: also called ID; NO; 52
B33: Ac-DDAK-NH2 (peptide)
peptide: Ac-DDAK-NH2
notes: also called ID; NO
B34: Ac-DEAR-NH2 (peptide)
peptide: Ac-DEAR-NH2
notes: also called ID; NO; 12
B35: Ac-RAEE-NH2 (peptide)
peptide: Ac-RAEE-NH2
notes: also called ID; NO; 23
B36: Ac-KADE-NH2 (peptide)
peptide: Ac-KADE-NH2
notes: also called ID; NO; 15
B37: Ac-KAED-NH2 (peptide)
peptide: Ac-KAED-NH2
notes: also called ID; NO
B38: Ac-HADD-NH2 (peptide)
peptide: Ac-HADD-NH2
notes: also called ID; NO

complete β peptide 1-40, marked by a fluorescent marker, sequence (P05067 672-711 limits assumed): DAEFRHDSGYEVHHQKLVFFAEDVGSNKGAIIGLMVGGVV

The first test has as its target complete β peptide 1-40, marked by a fluorescent marker (UniProt P05067 672-711, fluorescent marker, kind and position not stated). Description: cell-based or functional assay.
In the case of B1, the “inhibition of the aggregation of the Aβ peptide (fluorescence of marked Aβ 1-40 bound to the wells, SYNTHALOID SCREENING PLATE kit), IC50” value came out at 0.02 mM.

B2: the “inhibition of the aggregation of the Aβ peptide (fluorescence of marked Aβ 1-40 bound to the wells, SYNTHALOID SCREENING PLATE kit), IC50” value was found to be 0.02 mM.

For a further test, the target named is T1, Ac-DAEFRHDSGYEVHHQKGGGGC-NH2, immobilized peptide fragment corresponding to the 1-16 region of the amyloid-β … (N-terminal acetyl (Ac); C-terminal amide (NH2); C-terminal cysteine bound to the CM5 chip through a thiol bond).
T1 construct: Synthetic 21-mer; Aβ 1-16 plus GGGG linker and Cys for immobilisation; also called ligand; target ligand
T1 peptide: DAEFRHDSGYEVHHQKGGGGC
Description: SPR, BIACORE 3000, procedure of Example 1.
Regarding B3, the binding result is on record as “no binding (tested: Kd from 10^-3 to 10^-4 M)”.

In the case of B4, the binding result is “no binding (tested: Kd from 10^-3 to 10^-4 M)”.

Take B5: the binding result is “no binding (tested: Kd from 10^-3 to 10^-4 M)”.

For B6, the binding result is “no binding (tested: Kd from 10^-3 to 10^-4 M)”.

For the molecule B7, the binding result was “no binding (tested: Kd from 10^-3 to 10^-4 M)”.

For the molecule B8, the binding result was “no binding (tested: Kd from 10^-3 to 10^-4 M)”.

Consider B9, for which the binding result is listed as “no binding (tested: Kd from 10^-3 to 10^-4 M)”.

Turning to B10, the binding result was “no binding (tested: Kd from 10^-3 to 10^-4 M)”.

For B11, the binding result was “no binding (tested: Kd from 10^-3 to 10^-4 M)”.

Consider B12, for which the binding result is recorded as “no binding (tested: Kd from 10^-3 to 10^-4 M)”.

Turning to B13, the binding result is reported as “no binding (tested: Kd from 10^-3 to 10^-4 M)”.

Regarding B14, the binding result is recorded as “no binding (tested: Kd from 10^-3 to 10^-4 M)”.

In the case of B15, the binding result is on record as “no binding (tested: Kd from 10^-3 to 10^-4 M)”.

In the case of B16, the binding result is “no binding (tested: Kd from 10^-3 to 10^-4 M)”.

With B17, the binding result is “no binding (tested: Kd from 10^-3 to 10^-4 M)”.

Regarding B18, the binding result was “no binding (tested: Kd from 10^-3 to 10^-4 M)”.

On to B19, for which the binding result was “no binding (tested: Kd from 10^-3 to 10^-4 M)”.

As for B20, the binding result is “no binding (tested: Kd from 10^-3 to 10^-4 M)”.

B21: the binding result is given as “no binding (tested: Kd from 10^-3 to 10^-4 M)”.

Take B22: the binding result is given as “no binding (tested: Kd from 10^-3 to 10^-4 M)”.

With B23, the binding result is “no binding (tested: Kd from 10^-3 to 10^-4 M)”.

On to B24, for which the binding result is “no binding (tested: Kd from 10^-3 to 10^-4 M)”.

As to B25, the binding result was “no binding (tested: Kd from 10^-3 to 10^-4 M)”.

In the case of B26, the binding result is listed as “no binding (tested: Kd from 10^-3 to 10^-4 M)”.

For the molecule B27, the binding result is reported as “no binding (tested: Kd from 10^-3 to 10^-4 M)”.

For the molecule B28, the binding result is given as “no binding (tested: Kd from 10^-3 to 10^-4 M)”.

Take B29: the binding result was “no binding (tested: Kd from 10^-3 to 10^-4 M)”.

As for B30, the binding result is “no binding (tested: Kd from 10^-3 to 10^-4 M)”.

On to B31, for which the binding result is recorded as “no binding (tested: Kd from 10^-3 to 10^-4 M)”.

Take B32: the binding result was “no binding (tested: Kd from 10^-3 to 10^-4 M)”.

In another test the target is T1, Ac-DAEFRHDSGYEVHHQKGGGGC-NH2, …. The experiment in a line: SPR, BIACORE T100, ligand immobilised on CM5 chip, peptide as analyte 50-2,000 µM, no zinc, kinetic fit.
With B33, the Kd is 1.37 mM and the koff was 0.0062 s⁻¹.

B34 gave a Kd of 1.98 mM and a koff of 0.00709 s⁻¹.

Regarding B1, the affinity, expressed as Kd, was 0.013 mM and the koff was found to be 0.00024 s⁻¹.

For the molecule B2, binding was characterised by a dissociation constant (Kd) of 0.09 mM and the koff amounted to 3.5e-05 s⁻¹.

Molecule B35 gave a Kd of 7.7 mM and a koff of 0.0112 s⁻¹.

In turn, B36 returned a Kd of 4.5 mM and a koff of 0.0096 s⁻¹.

The molecule B37 gave a Kd of 3.3 mM and a koff of 0.019 s⁻¹.

Take B38: the Kd is 3.25 mM and the koff stood at 0.0104 s⁻¹.

The target is the same in another test. Description: SPR, BIACORE 3000, ligand immobilised on CM5 chip by thiol bond, peptide as analyte 0-25 µM, response at equilibrium; Example 1, BIACORE 3000, response at equilibrium. The protocol:
The SPR spectroscopy experiments were conducted with the BIACORE 3000 apparatus. The reagents for immobilizing the amyloid-β peptide fragment (EDC, NHS, PDEA and cysteine) were bought from GE Healthcare (USA). The buffer used for immobilizing the peptide ligand by formation of thiol bonds was 10 mM sodium acetate at pH 4.5. The regeneration buffer was an HBS buffer containing a medium with 10 mM HEPES and 3 mM EDTA, 0.005% of surfactant P20 and 150 mM NaCl at pH 7.4. […] was a HBS buffer at pH 7.4 and a HEPES buffer at pH 6.8, 50 mM, with 100 μM of Zn(II) ions for the reactive tetrapeptide Ac-HAEE-NH₂. All the buffers were filtered before use.
The peptide fragment of the ligand was: Ac-[…]-NH₂, corresponding to the sequence SEQ. ID. NO.26. This peptide with 21 amino acids contains the 16 amino acids of the N-terminal end of the binding domain of the amyloid-β, i.e. […] (SEQ. ID. NO.25), followed by 4 glycine amino acids and a cysteine C-Terminal end. […]
The reagent Ac-HAEE-NH₂ was prepared by dilution with 7 concentrations, i.e. 0, 2, 5, 10, 15, 20 and 25 μM, and injected in a multichannel mode (20 μL QUICKINJECT, 5 μL/min). […] Next, the dissociation constant Kd was calculated in a known way from curves established for the response at equilibrium (Req) versus the concentration (M) in the BIA evaluation 4.1 program.
Regarding B2, the Kd stood at 22 nM.
